{"source": "paper PMC6225287", "about": "(2018)", "molecular_target": "FGF-2 (Homo sapiens, UniProt P09038)", "sequence (P09038 143-288)": "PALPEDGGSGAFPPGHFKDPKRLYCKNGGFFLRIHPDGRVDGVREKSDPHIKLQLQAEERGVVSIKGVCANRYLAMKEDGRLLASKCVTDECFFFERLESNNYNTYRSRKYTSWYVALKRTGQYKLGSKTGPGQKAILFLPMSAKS", "experiment": "SPR", "data": [{"binder": "QEDYDKDGIGDACDD", "note": "[DD15 peptide (thrombospondin-1) type III repeats]", "values": [{"measurement": "Kd", "value": 28, "unit": "µM"}]}]}
